Assay results reported in paper PMC12062221.
Each block holds one substance with its values, some of them ahead of it.

Key:
[1] = target: human histone (H3-H4)2 tetramer (human) (UniProt P68431); experiment: MST
[2] = target: fluorescently labeled human H2a(G129C)-H2b dimer (human) (UniProt P04908); experiment: MST

Kd [1]: 107 nM
Substance: αSyn(1-103) (from UniProt P37840 1-103) (domain or fragment)

Kd [2]: 32400 nM
Substance: αSyn(1-131) (from UniProt P37840 1-131) (domain or fragment)

KD of one of two binding sites [2]: 500 nM
KD of the other of two binding sites [2]: 2600 nM
Substance: αSyn(121-140) peptide (from UniProt P37840 121-140)
